Patent publication US20090233868
pIC50: −log10 of the molar value.

Key:
[1] = system: T1, LaR2C-N7 (La 174-180) (Homo sapiens); test: inhibition; conditions: inhibition of HCV IRES translation in rabbit reticulocyte lysate; rescued by La
T1 sequence: KYKETDL

[2] = target: T2, LaR2C peptide (24-mer, La 174-197) (Homo sapiens) (UniProt P05455); test: inhibition; conditions: inhibition of HCV IRES translation in rabbit reticulocyte lysate
T2 sequence: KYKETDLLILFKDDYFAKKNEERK

HCV IRES-luciferase monocistronic RNA (uncapped)
pIC50 [1]: 4.40 | pIC50 [2]: 4.52
